Test results published in the nanobody polyreactivity screen of Harvey et al. (2022).

test: yeast display, Sf9 membrane polyspecificity reagent, FACS + sequencing; frameworks hold sequencing errors
Procedure, shortened: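 Synthetic nanobody libraries on Saccharomyces cerevisiae BJ5465 were galactose-induced for 36–48 hours, stained 1 hour at 4 °C with 10% biotinylated, detergent-solubilized Sf9 membrane reagent and enriched on streptavidin microbeads. FACS then separated cells into low and high (top ~1%) gates by anti-HA (expression) and streptavidin (reagent binding) fluorescence. Genes were colony-PCR amplified, MiSeq 2 × 250 sequenced and CDR-length filtered. A clone's polyreactivity label is that of its gate of origin.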

Sequence | polyreactivity (PSR sort gate)
QDHLVESGGGLVQAGGSLRLICAANGRTFRRYAMGWYRQAPGKERELVATITSGGSTNYADSVKGRFTISRDNAKNTVYLQMNSLKPQDTAVYYCAARHGESHYDYWGQGTQVTVSS | low polyreactivity
QDHLVESGGGLVQAGGSLRLSCAASGRIFGGYVMGRYRQAPGTERELVAAINGGGGSTYYADSVKGRFTISRDNAKNTVYLQMNSLKPEDTAVYYCMLVKRSQRKSTIDFDYWGQGTQVTVSS | high polyreactivity
QDHLVESGGGLVQAGGSLSLSCAASGIIFYGNAMGLSRQAHGKDRELVAAISWSGSSTYYADSVKGRFTISRDNAKNTVYLQMNSLKPEDNAVYYCNKATSSVRYLKYYYWGQGTQVTVSS | high polyreactivity
QDHLVETGGGLVQAGGSLRLSCAASGRTLYINAMGWYRQAPGKERELVAAIRRGGSTYADSVKGRFTISRDNAKNTVYLQMNRLKPEDTAVYYCAADVPSGKYKGDYWGQGTQVTVSS | high polyreactivity
QDKLVDSGGGLVQAGGSLRLSCAASGFIFGKYTMVWYRQAPGKERELVAAINRRGGSTYYADSVKGRFTISRDNAKNTVYLQMNSLKPEDTAVYYCAKDGYSLDRYYWGQGTQVTVSS | high polyreactivity
QDKLVESGGGLVKAGGSLRLSCAASGSIFATYAMVWYRQAPGKERELVAAISKSTDSTYYADSVKGRFTISRDNAKNNVYLQMNSQKPEDTAVYYCAAVQRYKGLQDDSWGQGTQVTVSS | high polyreactivity
QDPLVESGGGVVQAGGSLRLSCAASGSTFSDYAMGWYRQAPGKERELVAAISVSDGSTYYADSVKGRFTISRDIAKNSVYLQMNSLKPEETAVYYCAAEYPYFVYSYFRFDYWGQGTQVTVSS | low polyreactivity
QDQHVDSGGGLVQAGGSLRLSCAASGFIFPQNAMGWYRQAPGKERELVAAISKRGGSTYYADSVKGRFTISRDNAKNTVYLQMNSLNPEDTAVYYCAVRYYFYRPGGYDYWGQGTQLTVSS | high polyreactivity
QDQHVESGGCLVQAGGSLRLSCAASGFTFYANAMGWYRQAPGKERELVAAISRGVSTTYADSVKGRFTISRDNSKNTVYLQMNSLTPEDTAVYYCAADGKVIAQGYDYWGQGTQVTVST | low polyreactivity
QDQHVESGGGFVQAGGSLRLICAASGYTFYGNPMGWYRQAPGKEREFVASINYNDDSTYYADSVKGRFTISLDNAKNTDYLQMNSLKPEDTAVYYCAAEYRTRGYHWIYYWGQGTQVTVSS | low polyreactivity
QDQHVESGGGLVQAGCSLRLSCAASGFIFTYYAMGWYRQAPGKERELVAAISRSGGNTYYADSVKGRFTISRDNAKNTVYFQMYSLKREDTAVYFCAAETRRGGYWGYEYYYWGQGTQVTVSS | high polyreactivity
QDQHVESGGGLVQAGCSLRLSCAASGSIFKDNAMGWYRPAPCKEWELVADITIGDSTTYEDSVKGRFTISRDNAKNTVYLHMNSLKPEDTAVYYCAADNYIIKYDYWDYDYCGQGTQVTVSS | low polyreactivity
QDQHVESGGGLVQAGGILRLICAASGPIFGYNAMGWYRQEPGQERELVAAINSDGSKNYADSVKGRFTISRDNAKITVYLQMISLKPEDTAVYYCNQLLYPVGDYEFWGQGTQVTVSS | low polyreactivity
QDQHVESGGGLVQAGGRLRLSCAASGRIFSFYVMGWYIQAPGKERELVASISLSGGSTYYADSVKGRFTFSRDNAKNTVYLQMNSLKPEDTEVYYCNAVLYARQRERWARYDYWGQGTQVTVSS | high polyreactivity
QDQHVESGGGLVQAGGSLRLICAASGFIFVTNTMGWYRQAPGTEWELVAAIRWSGGTTYYADSVKGRFTISRDNAMQTVYLQMNSLKPEDTAFYYCAARYGSRSSYLAYYYWGQGTQVTVSS | high polyreactivity
QDQHVESGGGLVQAGGSLRLSCAASGIILSAYAMGWYRQAPGTERELVARISRSGGRTYYADSVKGRFTISRDNAKNTVYLQMNSLKPEDTAVYYCAADYSYGFGLYFGYGYWGQGTQVTVSS | high polyreactivity
QDQHVESGGGLVQAGGSLRLSCAASGLTFTLYAMGWYRKAPGKERELVAAITRSGGSTSYADSVKGRFTISRDYAKNTVYLQMNSLKPEDTAVYYCNADSPGYTAVRLVEFDYWGQGTQVTVSS | low polyreactivity
QDQHVESGGGLVQAGGSLRLSCAASGLTSLGNAMGWYRQAPGKERELVAAITRTGTSTYYADSVKGRFTISRDNAKNTVYLQMNSLKPEDTAVYYCAADWWYGYSNYDYWGQGTQVTVSS | low polyreactivity
QDQHVESGGGLVQAGGSLRLSCAASGRTIGYNAMGLYRQAPGKERELVAAITSSSGSTYYADSVKGRFTISRDNAKNTVYLQMNSLKPEDRAVYYCAAYFRRLLYDYWGQGTHVTVSS | high polyreactivity
QDQHVESGGGLVQAGGSLRLSCAASGSTFDAYAMGWYRQAPGKERELVAAISWSDTTTYYADSVKGRFTISRDNAKNTVYLQMNSLKPEDTAVYYCADEYYFTEGSYTSDYWGQGTQVTVSS | high polyreactivity
QDQHVESGGGLVQAGGSLRLSCAASGSTFDWNAMGWSRQAPGKERELVAGISWNGGSTYYADSVKGRFTISRDNAKNTVYLQMNSLKPEDTAVYYCNVVYGTTEYDYWGQGTQVTVSS | low polyreactivity
QDQHVESGGGLVQAGGSLRLSCDASGITFWYYAMGWYRQAPGKERELVAAISRRGGATYYADSVKGRFTISRDNAKNTVYLQLNSLKPEDTAVYYCNALLAGRRVARGYDSWGQGTQVTVSS | high polyreactivity

Sequence | polyreactivity (PSR sort gate)
QDQHVESGGGLVQAGGTLRISCAASGFTFYVYAMGWYRQAPGKEMELVASISKSGGSTYYADSVKGRFTITRDNAKNTVFLQMNSLKTVDTAVYYCAVYDKRSCYRGGHRYNSCGQGTQVTVSS | high polyreactivity
QDQHVESVGGLVQAGGSLRLSCAASGSIIPLYAMGWYRQAPGKERELVAAISSRGGSTYYADSVKGRFSISRDNAKNTVYLQMKSLKPEDTAVYYCAVDTPSPSRGPRFNYWGQGTQVTVSS | high polyreactivity
QDQIVESGGGLVQAGGSLRLSCAASGSIFVIKAMGWYRQAPGKERELVASIRGRTGSTNYADSVKGRFTISRDNAKNTVYLQMNSLKPVDTAVYYGAADRKGPFDYWGLGTQVTVSS | high polyreactivity
QDQIVESGGGLVQAGGSLRLSCAASGSIIWGNALGWYSQAPGKERELVAAISWGGGRTYYADSVKGRFTLSRDNAKNTVYLQMNSLKPEDTAVYYCNTRYPYVVSTGYDYWGQGTQVTVSS | high polyreactivity
QDQLEESGGGLDQAGCSLRLSCAASGFTFNYYTMGWYRQAPVKERELVAVITGGGGSTYYADSVKGRFTISRDNAKNTVYLQMNSLKPEDTAVYYCAAYWGGWSFRYLYDYWGQGTQVTGSS | high polyreactivity
QDQLEESGGGLVQAGGSLRLSCAASGFTFHINSMGWDREAPGKEREMVAAITYSGGSTYYADSVKGRFTISRDPAKNTVYLQMNCLKPEHTAVDYCATTWYFVASWFVAIYVYWGQGTQVTVSS | low polyreactivity
QDQLEESGGGLVQAGGSLRLSCAASGLTFIQYALGWYRQAPGKERELVAAINSGASTRYADSEKGRFTISRDNAMNTVYLQMNSLKPEDTAVYYCNARLRRYTNRYYKYYYWGQGTLVTVSS | high polyreactivity
QDQLEESGGGLVQAGGSLRLSCAASGSTFSYYTMGWYRQGPGKETELVAAISSGGSTYADSVKGRFTISRDNAKYTVYLQKNSLKPEDTAVYYCAVVGFDYGPSQALDDWGQGTQVTVSS | low polyreactivity
QDQLEESGGGLVQAGGSLRLSSADSGRIFYSYAMGWYRQAPGKERELVAAINSGDRTNYADSVKGRFTISRDNAKNTVYLQMNSLKPEDTAVYYCATRWFAFPWDEYNYWGQGTQGTVSS | low polyreactivity
QDQLEESVGGLVQAGGSLRLSCAASGRIFVYNAMGWYRQAPGKERELVAAISKGGGSTYYADSVKGRFTISRDNAKNTVYLQMNSLKPEDTAVYYCAAVVSGRYWGYYSWGQGTQVTVSS | high polyreactivity
QDQLGESGGGLVQAGGSLRLSCAASGSTFYAYAMGWYRQAPGKERELVATISWSGGSTYADCVKGRFTISRDNAKNTVYLQMNSLKPEDTPVYYCNAAGAFYPTQVHPGYTLWSYDYWGQGTQVTVSS | low polyreactivity
QDQLLESVGGLVQAGGSLRLSCAATGSTFHRSVMGSYRQAPGKEREMVAVINSTGGSTYYADSVKGRFTISLDNAKNTVYLQMNSVKPEDSAVYYFAADLYSIEYETAYRGYEYWGQGTQVTVSS | low polyreactivity
QDQLVDSGGGLVQAGGSLRLLCAPSGRTFGVYAMGRYIQAPGKERELVAAISRDGGSTYYADSVKGRFTISRDNAKNTVYLQMNSLIPEDTAVYYCNTDWRYRYGYWGQGTQVTVSS | high polyreactivity
QDQLVDSGGGLVQAGGSLRLSCAASGFTFSLNTMGWYRQAPGKERELVAAINSGDSTYADSVKGRFTISRDNAKNTVYLQMNSLKPEETAVYYCNADPDWWYPYNYWGQGTQVTVSS | low polyreactivity
QDQLVDSGGGLVQAGGSLRLSCAASGRIFGYNSMGWYRQAPGKERELVASISSDGRTYYADSVKGRFTISRDNAKNTVYLQMNSLKPEDTAVYYCAAKEWYFTTWYTYYERDYWGQGTQVTLSS | high polyreactivity
QDQLVDSGGGLVQAGGSLRLSCAASGRIFSGNGMGWYSPAPGKERELVASISSGGRTYYADSVKGRFTISRDNAKITVYLQMNSLKPEDTAVYYCNRVASVRARDYDYWGQGTQVTVSS | high polyreactivity
QDQLVDSGGGLVQAGGSLRLSCAASGRIIGYNAMVWYRQGPGKERELVAAITTSGGSTYYADSVKGRFTISSDNAKNTVYLQMNSLKPVDTAVYYCARDSLQVFYPYASDDYWGQGTQVTVSS | low polyreactivity
QDQLVDSGGGLVQAGGSLRLSCAASGRTFGYYAMGWYRQAPGKERELVAAISISTGRTYYADSVKGRFTISRDNAKNTVYLQMNSLKPEDTAVYYCAAYYYGGRYHSEYDYWGQGTQVTVSS | high polyreactivity
QDQLVDSGGGLVQAGGSLRLSCAASGRTIISYAMGRYRPAPGKERELVATITRDGRTNYADSVKGRFTISRDNAKNTVYLQMNSLNPEDTAVYYCNADSRYRYDYWGQGSQVTVSS | low polyreactivity
QDQLVDSGGGLVQAGGSLRLSCAASGSNFCGKAMGWYRQAPGKEREFVAAITRSGGSTYYADSVKGRFTISRDNAKNTVYLQMNSLKPEDTAVYYCNRDYAFKHHRAGYGYWGQGTLVTVSS | low polyreactivity
QDQLVDSGGGLVQAGGSLRLSCAASGSTFGPYPMGWYRQAPGKERELVATISSGGSTYYADSVKGRFTISRDNAKNTVYLQMNSLKPEDTSVYDCAARYWSIYDYWGQGTQVTVSS | low polyreactivity
